From patent US20240043563A1 (SHANGHAI MABGEEK BIOTECH, published 2024)

Assays:
[1] = biological target: T1, human MASP-2 of human serum (human, UniProt O00187 16-686); assay: cell-based or functional assay
[2] = biological target: T1, human MASP-2 of human serum; assay: cell-based or functional assay; remark: listed apart in the source
[3] = biological target: T1, human MASP-2 of human serum; assay: cell-based or functional assay; remark: listed apart in the source
Fc-cyno-MASP-2-CCS = Fc-cyno-MASP-2-CCS (human; cynomolgus monkey, UniProt P01857 119-329 = IgG part); assay: ELISA, plate coated with 1 ug/mL Fc-cyno-MASP-2-CCS
Procedure: The titer was tested by ELISA: an ELISA plate was coated with the Fc-hMASP-2A-CCS or Fc-hMASP-2-CCS antigen at a concentration of 1 μg/mL, 100 μL per well, and coated overnight at 4° C. The plate was washed twice with PBST (PBS containing 0.5% Tween-20) and then pat-dried. Each well was blocked with 200 μL of coating solution containing 1% BSA, blocked at room temperature for 4 hours, pat-dried, and stored in a refrigerator at −20° C. for use. During testing, 100 μL of mouse serum at different concentrations was added to each well of the ELISA plate, with two replicate wells for each concentration, and the plate was incubated at room temperature for 1.5 hours. The plate was washed three times with PBST and then pat-dried. 100 μL of HRP-labeled rabbit anti-mouse Ig antibody (purchased from Sigma) diluted with PBST by 1:10000 was added, and the plate was incubated at room temperature for 1 hour. The plate was washed three times with PBST and then pat-dried. 100 μL of chromogenic solution was added to each well (ELISA chromogenic solution A was mixed with chromogenic solution B at a volume ratio of 1:1 before use) for a chromogenic reaction, and then 100 μL of 2 M H₂SO₄ stopping solution was added to each well to terminate the reaction. The OD value of each well was immediately measured at 450 nm with a microplate reader (Molecular Device).
Murine anti-human MASP-2 monoclonal antibodies were purified by a Protein G affinity chromatography column, and then quantified by BCA method. The EC50 of anti-human MASP-2 monoclonal antibody binding to Fc-hMASP-2A-CCS or Fc-cyno-MASP-2-CCS was tested by ELISA. The testing method can refer to Example 2. A 96-well ELISA plate was coated with 1 μg/mL of Fc-hMASP-2A-CCS or Fc-cyno-MASP-2-CCS, and then added with murine anti-human MASP-2 monoclonal antibodies at different concentrations for testing.

[4] = biological target: cynomolgus monkey MASP-2 of cynomolgus monkey serum (cynomolgus monkey); assay: cell-based or functional assay

T1 sequence (O00187 16-686 limits assumed): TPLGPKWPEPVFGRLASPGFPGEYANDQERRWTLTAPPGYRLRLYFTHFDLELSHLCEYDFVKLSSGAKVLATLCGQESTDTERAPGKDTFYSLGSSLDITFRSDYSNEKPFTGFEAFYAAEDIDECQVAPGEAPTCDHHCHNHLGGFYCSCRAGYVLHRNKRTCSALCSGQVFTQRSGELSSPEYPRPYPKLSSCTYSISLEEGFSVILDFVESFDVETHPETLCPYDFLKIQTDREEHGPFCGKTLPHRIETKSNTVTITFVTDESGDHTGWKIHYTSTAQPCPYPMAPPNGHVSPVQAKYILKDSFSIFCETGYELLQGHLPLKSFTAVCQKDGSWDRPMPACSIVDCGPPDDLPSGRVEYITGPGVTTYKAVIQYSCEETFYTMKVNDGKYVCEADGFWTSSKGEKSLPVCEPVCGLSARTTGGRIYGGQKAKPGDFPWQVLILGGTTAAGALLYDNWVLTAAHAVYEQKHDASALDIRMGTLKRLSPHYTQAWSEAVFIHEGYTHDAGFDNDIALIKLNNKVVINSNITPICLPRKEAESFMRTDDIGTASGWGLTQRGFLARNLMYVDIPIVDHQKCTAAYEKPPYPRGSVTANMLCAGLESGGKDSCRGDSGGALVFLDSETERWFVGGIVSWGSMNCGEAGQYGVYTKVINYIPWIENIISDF

Binder	C4 cleavage IC50 (4% human serum) [1] [nM]	IC50 of inhibition of MASP-2-catalyzed C4 cleavage (4% human serum, C4b ELISA) [3] [nM]	also measured
humanized anti-human MASP-2 monoclonal antibody 126-Hu (antibody, human IgG4 S228P, kappa, V domains shown) VH: QVQLVESGGGVVQPGRSLRLSCAASGFTFSSFGMHWVRQAPGKGLEWVAYISSGSSSSFYVDTVKGRFTISRDNSKNTLYLQMNSLRAEDTAVYYCARGDRNFEVWGQGTTVTVSS VL: DIQMTQSPSSLSASVGDRVTITCRASQSVSSSRYSYMHWFQQKPGKAPKLLIYHASNLESGVPSRFSGSGSGTDFTLTISSLQPEDFATYYCQQSWEVPWTFGQGTKLEIKR	0.0598	–	IC50 of inhibition of MASP-2-catalyzed C4 cleavage in 90% human serum [2]: 3.46 nM; IC50 of inhibition of MASP-2-mediated C3b production (4% C1q-removed human serum) [2]: 0.494 nM
humanized anti-human MASP-2 monoclonal antibody 136-Hu (antibody, human IgG4 S228P, kappa, V domains shown) VH: QVQLVQSGAEVKKPGASVKVSCKASGNTFTNYWMHWIRQAPGQGLEWMGYINPNTGYTDFNQKFKDRVTLTADKSTSTAYMELSSLRSEDTAVYYCTLQLGRNFDYWGQGTTVTVSS VL: DIQMTQSPSSLSASVGDRVTITCRASQSVSSSRSTYIHWYQQKPGKAPKLLIYYSSNLESGVPSRFSGSGSGTDFTLTISSLQPEDFATYYCHQSWEIPYTFGQGTKLEIKR	0.311	–	–
humanized anti-human MASP-2 monoclonal antibody 100-Hu (antibody, human IgG4 S228P, kappa, V domains shown) VH: QVQLVESGGGVVQPGGSLRLSCAASGFTFSNFGIHWVRQAPGKGLEWVAYISSGGSAVFYADTVKGRFTISRDNSKNTLYLQMNSLRAEDTAVYYCAKSDRYFDYWGQGTTVTVSS VL: EIVLTQSPATLSLSPGERATLSCRASQSVSSSSYRYIHWYQQKPGQAPRLLIYYASNLESGIPARFSGSGSGTDFTLTISSLEPEDFAVYYCQHSWETPWTFGQGTKLEIKR	0.281	–	–
murine anti-human MASP-2 monoclonal antibody 100 (antibody, V domains shown) VH: DVQLVESGGGLVQPGGSRKLSCAASGFTFSNFGIHWVRQAPEKGLEWVAYISSGGSAVFYADTVKGRFTISRDNSKNTLFLQMTSLRSEDTAIYYCAKSDRYFDYWGQGTTLTVSS VL: DIVLTQSPASLAVSLGQRATISCRASQSVSSSSYRYIHWYQQKPGQPPRLLIKYASNLESGVPARFSGSGSGTDFTLNIHPVEEEDTATYYCQHSWETPWTFGGGTKLEIK	–	0.238	–
murine anti-human MASP-2 monoclonal antibody 136 (antibody, V domains shown) VH: QVQLQQSGAELAKPGASVKMSCKASGNTFTNYWMHWIKQRPGQGLEWVGYINPNTGYTDFNQKFKDKATLTADKSSTTAYMQLISLTSEDSTVYYCTLQLGRNFDYWGQGTTLTVSS VL: DIVLTQSPASLGVSLGQRATISCRASQSVSSSRSTYIHWYQQKPGQPPKLLIKYSSNLESGVPARFSGGGSGTDFTLNIHPVEAEDTATYYCHQSWEIPYTFGGGTKLEIR	–	0.0757	–
murine anti-human MASP-2 monoclonal antibody 124 (antibody, V domains shown, Murine monoclonal antibody purified from hybridoma by Protein G) VH: DVQLQESGPGLVKPSQSLSLTCTVTGYSITSDYAWNWIRQFPGNKLEWMGYISYSGRTSYNPSLKSRLSITRDTSKNQFFLQLTSVTTEDTATYYCARHYGDFWGQGTTLTVSS VL: DIVMTQSQKFMSTSVGDRVSVTCKASQNVDTNVAWFQQKPGQSPKPLIYSASYRYSGVPDRFTGSGSGTDFTLTISNVQSEDLANYFCQQYNSYPSTFGSGTKLEIK	–	0.15	EC50 (Fc-cyno-MASP-2-CCS): 0.179 nM
murine anti-human MASP-2 monoclonal antibody 120 (antibody, V domains shown, Murine monoclonal antibody purified from hybridoma by Protein G) VH: DVQLQESGPGLVKPSQSLSLTCTVTGYSITSDYAWSWIRQFLRNKLEWMGYISYSGRTSYNPSLKSRISITRDTSKNQFFLQLNSVTTEDTATYFCARLITGGDYWGQGTSVTVSS VL: DIVMTQSQKFMSTSVGDRVSVTCKASQNVGINVVWYQQKPGQSPKALIYSASYRFSGVPDRFTGSGSGTDFTLTISNVQSEDLAEYLCLQYDINPLTFGAGTKLELK	–	0.275	EC50 (Fc-cyno-MASP-2-CCS): 0.16 nM
humanized anti-human MASP-2 monoclonal antibody 124-Hu (antibody, human IgG4 S228P, kappa, V domains shown) VH: QVQLQESGPGLVKPSQTLSLTCTVSGYSITSDYAWNWIRQPPGKGLEWMGYISYSGRTSYNPSLKSRLTISRDTSKNQFSLKLSSVTAADTAVYYCARHYGDFWGQGTTVTVSS VL: DIQMTQSPSSLSASVGDRVTITCKASQNVDTNVAWYQQKPGKAPKLLIYSASYRYSGVPSRFSGSGSGTDFTLTISSLQPEDFATYYCQQYNSYPSTFGQGTKLEIKR	0.214	–	IC50 of inhibition of MASP-2-catalyzed C4 cleavage in 90% human serum [2]: 3.75 nM; IC50 of inhibition of MASP-2-mediated C3b production (4% C1q-removed human serum) [2]: 1.14 nM; IC50 of inhibition of MASP-2-catalyzed C4 cleavage in 90% cynomolgus monkey serum [4]: 168 nM
murine anti-human MASP-2 monoclonal antibody 115 (antibody, V domains shown) VH: DVQLVESGGGLVQPGGSRKLSCAASGFTFSSFGMHWVRQAPEKGLEWVAYISSGSSSFFYADTVKGRFTISRDNPKNTLFLQMTSLRSEDTAMYYCARGDRNFDVWGAGTTVTVSS VL: DIVLTQSPASLAVSLGQRATISCRASQSVTSSRYSYMHWFQQKPGQPPNLLIKHASNLESGVPARFSGSGSGTDFTLNIHPVEEDDTATYYCQHSWEVPWTFGGGTKLEIK	–	0.0826	–
murine anti-human MASP-2 monoclonal antibody 126 (antibody, V domains shown) VH: DVQLVESGGGLVQPGGSRKLSCVASGFTFSSFGMHWVRQAPEKGLEWVAYISSGSSSSFYVDTVKGRFTISRDNPKNTLFLQMTSLRSEDTAMYYCARGDRNFEVWGAGTTVTVSS VL: DIVLTQSPASLAVSLGQRATISCRASQSVSSSRYSYMHWFQQKPGQPPNLLIKHASNLESGVPARFSGSGSGTDFTLNIHPVEEEDTATYYCQQSWEVPWTFGGGTKLEIK	–	0.0774	–
murine anti-human MASP-2 monoclonal antibody 60 (antibody, V domains shown, Murine monoclonal antibody purified from hybridoma by Protein G) VH: QVQLQQSGAELMKPGASVKISCKATGYPFSTYWIEWVKQRPGHGLEWIGEILPGSDNTNYNEKFKGKATFTADTSSNTAYMQLSSLTSEDSAVYYCARRTTATRAWFVYWGQGTLVTVSA VL: DIVMSQSPSSLAVSVGEKVTMSCKSSQSLLYSSNQKNYLAWYQQKPGQSPKLLIYWASTRESGVPDRFTGSGSGTDFTLTISSVRAEDLAVYYCQHYYTYPWTFGGGTNLEIK	–	0.161	EC50 (Fc-cyno-MASP-2-CCS): 0.096 nM
